The results in this text go back to US20130315910A1 (Xencor, published 2013).

T1: mFcγRIIb (Mus musculus, UniProt P08101)
T1 construct: extracellular region, C-terminal His- and GST-tag; also called mouse FcγRII
T1 sequence (receptor extracellular region, looked up): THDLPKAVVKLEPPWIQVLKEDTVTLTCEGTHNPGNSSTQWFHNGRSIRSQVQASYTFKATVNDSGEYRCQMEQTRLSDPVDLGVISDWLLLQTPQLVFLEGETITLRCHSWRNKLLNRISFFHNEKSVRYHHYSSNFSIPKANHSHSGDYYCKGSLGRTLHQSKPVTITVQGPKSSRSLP

T2: cynoFcγRIIb (Macaca fascicularis, UniProt A0A140HDP4)
T2 construct: extracellular region, C-terminal His- and GST-tag; also called cynomolgus monkey FcγRIIb
T2 sequence (receptor extracellular region): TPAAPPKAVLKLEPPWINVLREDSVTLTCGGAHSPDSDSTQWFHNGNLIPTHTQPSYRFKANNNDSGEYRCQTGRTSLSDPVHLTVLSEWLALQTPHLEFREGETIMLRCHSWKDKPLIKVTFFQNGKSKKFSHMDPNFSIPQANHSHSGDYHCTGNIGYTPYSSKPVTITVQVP

T3: human FcγRIIb receptor protein (R&D Systems) (human, UniProt P31994 46-217)
T3 construct: Bought protein injected over captured antibody in Biacore; also called CD32b
T3 sequence (looked up): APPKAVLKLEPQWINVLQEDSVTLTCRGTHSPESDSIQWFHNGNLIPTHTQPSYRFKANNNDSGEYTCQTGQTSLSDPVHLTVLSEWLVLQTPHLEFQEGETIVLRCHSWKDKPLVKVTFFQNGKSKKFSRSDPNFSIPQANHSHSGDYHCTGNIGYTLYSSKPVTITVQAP

B1: S239D/A327D/L328Y (antibody, human IgG1, kappa)
heavy: EVQLVESGGGLVKPGGSLKLSCAASGYTFTSYVMHWVRQAPGKGLEWIGYINPYNDGTKYNEKFQGRVTISSDKSISTAYMELSSLRSEDTAMYYCARGTYYYGTRVFDYWGQGTLVTVSSASTKGPSVFPLAPSSKSTSGGTAALGCLVKDYFPEPVTVSWNSGALTSGVHTFPAVLQSSGLYSLSSVVTVPSSSLGTQTYICNVNHKPSNTKVDKKVEPKSCDKTHTCPPCPAPELLGGPDVFLFPPKPKDTLMISRTPEVTCVVVDVSHEDPEVKFNWYVDGVEVHNAKTKPREEQYNSTYRVVSVLTVLHQDWLNGKEYKCKVSNKDYPAPIEKTISKAKGQPREPQVYTLPPSREEMTKNQVSLTCLVKGFYPSDIAVEWESNGQPENNYKTTPPVLDSDGSFFLYSKLTVDKSRWQQGNVFSCSVMHEALHNHYTQKSLSLSPGK
light: DIVMTQSPATLSLSPGERATLSCRSSKSLQNVNGNTYLYWFQQKPGQSPQLLIYRMSNLNSGVPDRFSGSGSGTEFTLTISSLEPEDFAVYYCMQHLEYPITFGAGTKLEIKRTVAAPSVFIFPPSDEQLKSGTASVVCLLNNFYPREAKVQWKVDNALQSGNSQESVTEQDSKDSTYSLSSTLTLSKADYEKHKVYACEVTHQGLSSPVTKSFNRGEC
notes: HuAM4G7 anti-CD19 IgG1 (m1) with these Fc substitutions, EU index; copies: 2 + 2
B2: A330S (antibody, human IgG1, kappa)
heavy: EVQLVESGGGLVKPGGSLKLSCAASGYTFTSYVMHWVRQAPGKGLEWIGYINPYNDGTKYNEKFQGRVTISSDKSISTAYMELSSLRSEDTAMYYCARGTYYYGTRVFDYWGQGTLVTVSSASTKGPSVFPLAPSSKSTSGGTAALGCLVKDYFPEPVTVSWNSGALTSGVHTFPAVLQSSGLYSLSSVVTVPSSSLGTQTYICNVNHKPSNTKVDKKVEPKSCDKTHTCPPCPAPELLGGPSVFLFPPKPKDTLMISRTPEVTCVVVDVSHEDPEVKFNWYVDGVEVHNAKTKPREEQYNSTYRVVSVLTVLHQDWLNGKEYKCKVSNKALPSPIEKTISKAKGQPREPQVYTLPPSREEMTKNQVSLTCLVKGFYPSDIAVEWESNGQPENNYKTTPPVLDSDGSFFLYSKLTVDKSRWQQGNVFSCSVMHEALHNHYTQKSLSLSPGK
light: B1 light
notes: HuAM4G7 anti-CD19 IgG1 (m1) with this Fc substitution, EU index; copies: 2 + 2
B3: L235F/H268D/L328Y (antibody, human IgG1, kappa)
heavy: B1 heavy with L239F, D243S, H272D, D331A
light: B1 light
notes: as for B1
B4: A330K (antibody, human IgG1, kappa)
heavy: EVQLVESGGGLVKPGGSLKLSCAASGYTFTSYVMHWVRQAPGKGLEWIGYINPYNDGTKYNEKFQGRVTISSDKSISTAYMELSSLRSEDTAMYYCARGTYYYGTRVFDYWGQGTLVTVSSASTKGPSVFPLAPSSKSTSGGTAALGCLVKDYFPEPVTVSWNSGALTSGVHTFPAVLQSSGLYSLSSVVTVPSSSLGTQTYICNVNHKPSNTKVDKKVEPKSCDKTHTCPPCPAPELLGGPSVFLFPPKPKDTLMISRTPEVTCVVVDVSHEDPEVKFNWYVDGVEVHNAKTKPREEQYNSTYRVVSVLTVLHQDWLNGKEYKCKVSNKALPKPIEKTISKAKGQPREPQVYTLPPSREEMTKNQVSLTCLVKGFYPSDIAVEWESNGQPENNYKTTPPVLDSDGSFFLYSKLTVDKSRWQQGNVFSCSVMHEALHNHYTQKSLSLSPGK
light: B1 light
notes: as for B2
B5: S267A/L328Y/I332E (antibody, human IgG1, kappa)
heavy: B1 heavy with D243S, S271A, D331A, I336E
light: B1 light
notes: as for B1
B6: K326D/L328Y/I332E (antibody, human IgG1, kappa)
heavy: B1 heavy with D243S, K330D, D331A, I336E
light: B1 light
notes: as for B1
B7: H268D/K326D/L328Y (antibody, human IgG1, kappa)
heavy: B1 heavy with D243S, H272D, K330D, D331A
light: B1 light
notes: as for B1
B8: L235F/L328Y/I332E (antibody, human IgG1, kappa)
heavy: B1 heavy with L239F, D243S, D331A, I336E
light: B1 light
notes: as for B1
B9: L234W/L328Y/I332E (antibody, human IgG1, kappa)
heavy: B1 heavy with L238W, D243S, D331A, I336E
light: B1 light
notes: as for B1
B10: H268D/L328Y/I332E (antibody, human IgG1, kappa)
heavy: B1 heavy with D243S, H272D, D331A, I336E
light: B1 light
notes: as for B1
B11: K326E (antibody, human IgG1, kappa)
heavy: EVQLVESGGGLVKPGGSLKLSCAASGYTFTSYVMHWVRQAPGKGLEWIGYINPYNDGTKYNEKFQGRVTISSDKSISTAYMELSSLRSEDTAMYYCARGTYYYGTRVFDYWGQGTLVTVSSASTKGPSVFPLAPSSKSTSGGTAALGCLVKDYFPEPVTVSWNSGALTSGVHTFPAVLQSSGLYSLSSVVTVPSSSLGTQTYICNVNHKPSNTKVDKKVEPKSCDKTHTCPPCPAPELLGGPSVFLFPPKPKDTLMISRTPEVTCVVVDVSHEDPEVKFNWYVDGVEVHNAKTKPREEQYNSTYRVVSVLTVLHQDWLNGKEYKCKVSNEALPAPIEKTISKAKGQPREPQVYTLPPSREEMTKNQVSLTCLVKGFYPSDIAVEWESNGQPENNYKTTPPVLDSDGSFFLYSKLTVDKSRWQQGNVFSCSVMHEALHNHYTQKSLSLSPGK
light: B1 light
notes: as for B2
B12: L234W/S239D/L328Y (antibody, human IgG1, kappa)
heavy: B1 heavy with L238W, D331A
light: B1 light
notes: as for B1
B13: K326A (antibody, human IgG1, kappa)
heavy: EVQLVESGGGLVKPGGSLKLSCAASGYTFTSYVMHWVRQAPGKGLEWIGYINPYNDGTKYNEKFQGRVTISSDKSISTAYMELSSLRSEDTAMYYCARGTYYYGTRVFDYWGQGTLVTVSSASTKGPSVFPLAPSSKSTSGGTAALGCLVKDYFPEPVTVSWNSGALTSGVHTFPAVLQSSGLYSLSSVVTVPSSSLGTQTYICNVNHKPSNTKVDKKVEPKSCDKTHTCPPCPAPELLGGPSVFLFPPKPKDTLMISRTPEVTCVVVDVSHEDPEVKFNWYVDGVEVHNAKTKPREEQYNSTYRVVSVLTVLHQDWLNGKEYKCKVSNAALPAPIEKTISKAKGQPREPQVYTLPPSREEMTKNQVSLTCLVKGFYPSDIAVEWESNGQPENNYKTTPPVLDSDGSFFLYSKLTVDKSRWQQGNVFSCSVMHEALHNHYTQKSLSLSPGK
light: B1 light
notes: as for B2
B14: A327D/L328Y/I332E (antibody, human IgG1, kappa)
heavy: B1 heavy with D243S, I336E
light: B1 light
notes: as for B1
B15: K326W (antibody, human IgG1, kappa)
heavy: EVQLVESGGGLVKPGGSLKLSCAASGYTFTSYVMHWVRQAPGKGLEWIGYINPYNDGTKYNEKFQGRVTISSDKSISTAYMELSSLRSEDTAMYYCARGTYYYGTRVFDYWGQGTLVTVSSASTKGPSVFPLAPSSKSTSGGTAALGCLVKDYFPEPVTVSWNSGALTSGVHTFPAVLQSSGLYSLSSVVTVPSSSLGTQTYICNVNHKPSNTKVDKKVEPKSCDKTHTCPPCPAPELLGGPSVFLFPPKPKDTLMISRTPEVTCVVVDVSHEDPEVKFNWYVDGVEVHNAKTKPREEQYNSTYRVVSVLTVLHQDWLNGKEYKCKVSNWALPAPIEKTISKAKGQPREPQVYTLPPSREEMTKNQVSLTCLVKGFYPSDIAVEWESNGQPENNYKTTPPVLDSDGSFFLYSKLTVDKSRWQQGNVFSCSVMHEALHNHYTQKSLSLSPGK
light: B1 light
notes: as for B2
B16: S267A/H268D/L328Y (antibody, human IgG1, kappa)
heavy: B1 heavy with D243S, S271A, H272D, D331A
light: B1 light
notes: as for B1

Numbering of substitutions follows the chain as printed. In names and notes the source's numbering stands.

The target of the first assay is T1, mFcγRIIb. Description: SPR. The procedure:
(§1) Variants were screened for receptor affinity using Biacore™ technology, also referred to as Biacore herein, a surface plasmon resonance (SPR) based technology for studying biomolecular interactions in real time. SPR measurements were performed using a Biacore 3000 instrument (Biacore, Piscataway, N.J.). A protein A/G (Pierce Biotechnology) CM5 biosensor chip (Biacore) was generated using a standard primary amine coupling protocol. All measurements were performed using HBS-EP buffer (10 mM HEPES pH 7.4, 0.15 M NaCl, 3 mM EDTA, 0.005% vol/vol surfactant P20, Biacore). Antibodies at 20 nM or 50 nM in HBS-EP buffer were immobilized on the protein A/G surface and FcγRs were injected. After each cycle, the surface was regenerated by injecting glycine buffer (10 mM, pH 1.5). Data were processed by zeroing time and response before the injection of FcγR and by subtracting appropriate nonspecific signals (response of reference channel and injection of running buffer). Kinetic analyses were performed by global fitting of binding data with a 1:1 Langmuir binding model using BIAevaluation software (Biacore).
(§2) Variant antibodies were tested for their affinity to mouse or cynologous monkey FcγRs using Biacore SPR as described above. Specifically, antibodies were first immobilized on a protein A/G chip to high density, and then followed by injections of the extracellular domain of the mouse or cynologous monkey FcγR of interest. Both association and dissociation phases were tracked in real time using the Biacore technology.
With B1, the “Fold vs WT IgG1 (Kd)” value amounted to 45.3 fold.
As to B2, the “Fold vs WT IgG1 (Kd)” value came to 0.054 fold.
For B3, the “Fold vs WT IgG1 (Kd)” value is 6.82 fold.
Same read-out and setting: the value for B4 was 0.296 fold; that for B5 was 2.63 fold; that for B6 was 1.87 fold.
The same measure, in the same setting: the figure for B7 is 19.4 fold; for B8 it is 0.843 fold; for B9 it is 0.617 fold.
For B10, the “Fold vs WT IgG1 (Kd)” value is 1.28 fold.
On the same count and under the same terms, the figure for B11 is 0.605 fold; for B12 it is 44.1 fold; for B13 it is 0.164 fold.
On the same count and under the same terms, the figure for B14 is 1.24 fold; for B15 it is 0.429 fold.
Still for that read-out and setting: the figure for B16 is 32.4 fold.

The next assay deals with T2, cynoFcγRIIb. Description: SPR. The procedure:
as §1, §2
For the molecule B1, the “Fold vs WT IgG1 (Kd)” value worked out at 1.31 fold.
On to B2, for which the “Fold vs WT IgG1 (Kd)” value came to 0.255 fold.
The same measure, in the same setting: the value for B3 was 3.17 fold.
Still for that read-out and setting: the figure for B4 is 2.02 fold; for B5 it is 3.65 fold; for B6 it is 4.78 fold.
The same measure, in the same setting: the value for B7 was 9.38 fold.
Consider B8, for which the “Fold vs WT IgG1 (Kd)” value was found to be 4.11 fold.
As for B9, the “Fold vs WT IgG1 (Kd)” value amounted to 2.04 fold.
The same measure, in the same setting: the figure for B10 is 4.08 fold; for B11 it is 1.03 fold; for B12 it is 5.92 fold.
For the molecule B13, the “Fold vs WT IgG1 (Kd)” value turned out to be 1.36 fold.
The same measure, in the same setting: the value for B14 was 1.02 fold.
Turning to B15, the “Fold vs WT IgG1 (Kd)” value was 0.078 fold.
Consider B16, for which the “Fold vs WT IgG1 (Kd)” value is 3.26 fold.

For the next assay, the target named is T3, human FcγRIIb receptor protein (R&D …). Description: SPR.
In the case of B1, the “Fold vs WT IgG1” value came to 11.9 fold and binding was put at a Kd of 123 nM.
As to B2, the “Fold vs WT IgG1” value amounted to 0.0635 fold and the Kd is 23100 nM.
In the case of B3, the “Fold vs WT IgG1” value came to 3.97 fold and the Kd came out at 370 nM.
The like results for B4 were, in that order, 1.55 fold and 947 nM.
Turning to B5, the “Fold vs WT IgG1” value was found to be 13.5 fold and the Kd worked out at 109 nM.
Taken in the same sequence, the figures for B6 were 2.65 fold and 553 nM.
Turning to B7, the “Fold vs WT IgG1” value is 18.6 fold and the dissociation constant Kd stood at 78.9 nM.
Take B8: the “Fold vs WT IgG1” value came out at 3.31 fold and binding was characterised by a dissociation constant (Kd) of 443 nM.
The like results for B9 were, in that order, 6.32 fold and 232 nM.
On to B10, for which the “Fold vs WT IgG1” value turned out to be 4.89 fold and binding was characterised by a dissociation constant (Kd) of 300 nM.
Consider B11, for which the “Fold vs WT IgG1” value came out at 6.09 fold and binding was characterised by a dissociation constant (Kd) of 241 nM.
As for B12, the “Fold vs WT IgG1” value amounted to 32.8 fold and the dissociation constant (Kd) stood at 44.8 nM.
B13: the binding result was “no binding”.
As to B14, the “Fold vs WT IgG1” value amounted to 2.31 fold and binding was characterised by a dissociation constant (Kd) of 636 nM.
The like results for B15 were, in that order, 3.04 fold and 483 nM.
For the molecule B16, the “Fold vs WT IgG1” value amounted to 10.7 fold and the Kd was found to be 137 nM.
